# Measured values: patent publication US5180678A, “Uses of substantially pure interleukin-9 receptor” (Ludwig Institute for Cancer Research, priority 1992, dated 1993)
# T1: IL-9R (Mus musculus, UniProt Q01114)
# T1 sequence (Q01114 38-468): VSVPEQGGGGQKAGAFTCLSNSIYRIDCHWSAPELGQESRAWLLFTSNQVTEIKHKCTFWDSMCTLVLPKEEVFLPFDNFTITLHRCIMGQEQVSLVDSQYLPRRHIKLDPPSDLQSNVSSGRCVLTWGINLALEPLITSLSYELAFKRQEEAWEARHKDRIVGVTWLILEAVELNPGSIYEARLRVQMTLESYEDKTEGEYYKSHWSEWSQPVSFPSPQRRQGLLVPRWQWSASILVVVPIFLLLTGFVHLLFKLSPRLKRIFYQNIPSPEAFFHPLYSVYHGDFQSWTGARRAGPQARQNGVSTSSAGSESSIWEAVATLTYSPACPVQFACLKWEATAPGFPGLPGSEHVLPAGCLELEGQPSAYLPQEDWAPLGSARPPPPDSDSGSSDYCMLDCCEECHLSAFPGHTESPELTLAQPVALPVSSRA
# Tests used:
# [1] = target: T1, IL-9R; test: Competitive binding of radiolabelled rIL-9 to TS1 cells (specificity of IL-9 binding); parameters: a number of different cell types were tested for the presence of the IL-9R molecule; endogenous in cells; conditions: labelled rIL-9 6.1×10^-10 M, 10^6 TS1 cells, 3 h 4° C., no competitor 4083 ± 16
# Description: In order to test whether the radioactive IL-9 would bind to TS1 cells which are mouse cells, which are IL-9 dependent, a competitive assay was carried out. Specifically, rIL-9 was incubated with TS1 cells in 140 ul of DMEM containing BSA (10 mg/ml) and Na3 N (10 mM). In order to determine the level of binding, a 100 fold excess of "cold", i.e., non-radiolabelledIL-9, was also mixed with the material. The rIL-9 was admixed at 6.1×10^-10 M, for three hours at 4° C., with 10^6 TS1 cells. Bound material was separated from free ligand via centrifugation over a layer of dibutyl and dioctyl phthalate (15:I). In addition, the experiments were repeated using various interleukins, interferon-γ ("INF-γ"), tumor necrosis factor ("TNF"), and granulocyte, macrophage colony stimulating factor ("GM-CSF"). All experiments were carried out in triplicate.
# [2] = target: T1, IL-9R; test: Saturation binding of radiolabelled rIL-9 to TS-1 cells, Scatchard transformation; parameters: endogenous in cells; host or cells: TS1 cells (mouse, IL-9 dependent)
# Description: Experiments were performed to study the saturation binding of rIL-9. In these studies, as depicted in FIGS. 4a and 4b, increasing concentrations of radiolabelled rIL-9 were incubated with TS-1 cells (5×10^6 cells, 4° C. for three hours). This binding assay, as with those described supra. used 140 ul of DMEM containing BSA and Na3 N, also as described supra. Binding plateaued at 1 nM concentration, with half maximal saturation being reached at approximately 100 pM (FIG. 4a).
# [3] = radiolabelled rIL-9, 5×10^6 TS-1 cells, 4° C., three hours (FIG. 4a)
molecule,measurement,setting,value
IL-1α: interleukin tested as competitor of IL-9 binding,Bound Radioactivity,[1]; competitor 8.7 × 10^-8 M,4232 ± 177 cpm
IL-4: interleukin tested as competitor of IL-9 binding,Bound Radioactivity,[1]; competitor 8.0 × 10^-8 M,4154 ± 156 cpm
IL-5: interleukin tested as competitor of IL-9 binding,Bound Radioactivity,[1]; competitor 2.7 × 10^-8 M,4642 ± 77 cpm
IL-6: interleukin tested as competitor of IL-9 binding,Bound Radioactivity,[1]; competitor 6.7 × 10^-8 M,4751 ± 61 cpm
"IFN-γ: interferon-γ tested as competitor of IL-9 binding (protein, UniProt P01579 24-161, looked up) Interferon gamma: QDPYVKEAENLKKYFNAGHSDVADNGTLFLGILKNWKEESDRKIMQSQIVSFYFKLFKNFKDDQSIQKSVETIKEDMNVKFFNSNKKKRDDFEKLTNYSVTDLNVQRKAIHELIQVMAELSPAAKTGKRKRSQMLFRG",Bound Radioactivity,[1]; competitor 2.4 × 10^-8 M,4944 ± 8 cpm
"rIL-9: recombinant mouse IL-9 from baculovirus infected Sf9 cells, 22-25 kilodaltons; used unlabelled and 125I-labelled (protein, UniProt P15247 19-144, looked up, 125I-labelled in some uses, recombinant mouse IL-9 from baculovirus infected Sf9 cells, 22-25 kilodaltons; used unlabelled and 125I-labelled) Interleukin-9: QRCSTTWGIRDTNYLIENLKDDPPSKCSCSGNVTSCLCLSVPTDDCTTPCYREGLLQLTNATQKSRLLPVFHRVKRIVEVLKNITCPSFSCEKPCNQTMAGNTLSFLKSLLGTFQKTEMQRQKSRP",density of IL-9 receptor,"[2]; Scatchard transformation, 3 runs, TS-1 cells (FIG. 4b)",3111±565 /cell
same,Kd,"[2]; Scatchard transformation, 3 runs, TS-1 cells, single class of receptor (FIG. 4b)",0.103 ± 0.013 nM
same,concentration at which binding plateaued,[2]; [3],1 nM
same,half maximal saturation,[2]; [3],approximately 100 pM
same,Bound Radioactivity,[1]; competitor 1.2 × 10^-9 M,733 ± 21 cpm
same,Bound Radioactivity,[1]; competitor 6.1 × 10^-8 M,80 ± 8 cpm
"GM-CSF: granulocyte, macrophage colony stimulating factor tested as competitor of IL-9 binding (protein, UniProt P01587 18-141, looked up) Granulocyte-macrophage …: APTRSPITVTRPWKHVEAIKEALNLLDDMPVTLNEEVEVVSNEFSFKKLTCVQTRLKIFEQGLRGNFTKLKGALNMTASYYQTYCPPTPETDCETQVTTYADFIDSLKTFLTDIPFECKKPGQK",Bound Radioactivity,[1]; competitor 6.4 × 10^-8 M,4682 ± 63 cpm
